Measured values: paper PMC8876998
“And” between values parts separate entries of the source, which are not always exact repeats. Identical values can stand only once.

How the values were obtained:
[1] = target: Getah virus capsid protein (Getah virus (GETV), strain SC483); test: cryo-EM structure
[2] = target: Getah virus envelope glycoprotein E2 (Getah virus (GETV), strain SC483); test: cryo-EM structure

Substance	stoichiometry N [1]	stoichiometry N [2]
Getah virus capsid protein (natural protein)	6 and 5	
Getah virus envelope glycoprotein E2 (natural protein)		3
